Laboratory results taken from patent US20060171884A1 (Amgen, published 2006).

T1: Matriptase (soluble enzyme, form not stated) (human, UniProt Q9Y5Y6 615-855, limits assumed)
T1 construct: also called Matriptase-1; MT-SP1
T1 sequence: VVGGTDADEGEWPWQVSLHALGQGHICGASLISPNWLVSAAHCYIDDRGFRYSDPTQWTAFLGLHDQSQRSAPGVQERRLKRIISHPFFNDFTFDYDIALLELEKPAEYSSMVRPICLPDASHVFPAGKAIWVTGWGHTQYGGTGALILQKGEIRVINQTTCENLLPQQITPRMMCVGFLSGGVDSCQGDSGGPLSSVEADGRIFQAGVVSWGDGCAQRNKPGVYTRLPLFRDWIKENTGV


Columns and labels:
[1] = target: Rhesus Macaque MTSP-1 on 4MBr5 cells (rhesus macaque) (UniProt H9ZCT3); experiment: FACS on 4MBr5 monkey lung epithelial cells, antibody at 1 µg/ml
[2] = target: native human Matriptase on cells (human) (UniProt Q9Y5Y6); experiment: FACS on 22Rv1 cells, antibody at 1 µg/ml
[3] = target: T1, Matriptase (soluble enzyme, form not …); experiment: competition ELISA: 125 ng/ml biotinylated MTSP1 pre-incubated 1 hour with titrated HAI-1, then transferred to a sc95/96 coated plate, bound MTSP detected with SA-pod; competitor: plate-coated sc95/96

Molecule	geomean (geomean fluorescence) [1]	geomean (geomean fluorescence) [2]	IC50 (read off the curve) [3]
IgG1 irrelevant control antibody	5	5	–
HAI-1 (soluble, as titrated in the competition assay) (other, UniProt O43278 36-465, looked up) GPPPAPPGLPAGADCLNSFTAGVPGFVLDTNASVSNGATFLESPTVRRGWDCVRACCTTQNCNLALVELQPDRGEDAIAACFLINCLYEQNFVCKFAPREGFINYLTREVYRSYRQLRTQGFGGSGIPKAWAGIDLKVQPQEPLVLKDVENTDWRLLRGDTDVRVERKDPNQVELWGLKEGTYLFQLTVTSSDHPEDTANVTVTVLSTKQTEDYCLASNKVGRCRGSFPRWYYDPTEQICKSFVYGGCLGNKNNYLREEECILACRGVQGGPLRGSSGAQATFPQGPSMERRHPVCSGTCQPTQFRCSNGCCIDSFLECDDTPNCPDASDEAACEKYTSGFDELQRIHFPSDKGHCVDLPDTGLCKESIPRWYYNPFSEHCARFTYGGCYGNKNNFEEEQQCLESCRGISKKDVFGLRREIPIPSTGSVE	–	–	~40 nM
